Laboratory results: the nanobody polyreactivity screen of Harvey et al. (2022)

Experiment: yeast display, Sf9 membrane polyspecificity reagent, FACS + sequencing; frameworks hold sequencing errors
Summary of the method: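 Galactose-induced (36–48 hours) yeast carrying a synthetic nanobody display library were exposed to 10% biotinylated, detergent-solubilized Sf9 membrane reagent at 4 °C for 1 hour. FACS followed streptavidin microbead enrichment, using low and high (top ~1%) gates for expression (anti-HA) and reagent binding (streptavidin). Colony PCR, MiSeq 2 × 250 sequencing and CDR-length filtering followed. Labels for polyreactivity reflect the gate of origin.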

Row | Sequence | polyreactivity (PSR sort gate)
1 | QVQLVESGGGLVQAGGSLRLSCASSGRIIRRNAMGWYRQAPGKERELVASISQGGSTYYADSVKGRFTISRDNAKNTVYLQMNSLKPEDTAVYYCAATLSYYVGVRYDYWGQGTQVTVSS | high polyreactivity
2 | QVQLVESGGGLVQAGGSLRLSCASSGRTFAWYAMGWYRQAPGKERELVAAISNVGSTYYADSVKGRFTISRDNAKNTVYLQMNSLKPEDTAVYYCNADAVSTDGREYWGQGTQVTVSS | low polyreactivity
3 | QVQLVESGGGLVQAGGSLRLSCASSGRTFQYYAMGWYRQAPGKERELVAAISSRGGSTYYADSVKGRFTISRDNAKNTVYLQMNSLKPEDTAVYYCAAYVLPRQRVRSDYWGQGTQVTVSS | high polyreactivity
4 | QVQLVESGGGLVQAGGSLRLSCASSGRTFRYNAKGWYRQAPGKERELVAAISWSGGGTYYSDSVKGRFTISRDNAKNTVYLQMNSLKPEDTAVYYCAAEEQIPLTNNSKYYYWGQGTQVTVSS | low polyreactivity
5 | QVQLVESGGGLVQAGGSLRLSCASSGRTFYLNAMGWYRQAPGKERELVAAISKRGGSTYYADSVKGRFTISRDNAKNTVYLQMNSLKPEDTAVYYCAKGFSFYSPRYDYWGQGTQVTVSS | high polyreactivity
6 | QVQLVESGGGLVQAGGSLRLSCASSGRTLRRYAMGWYRQAPGKERELVAAISRSGSSTYADSVKGRFTISRDNAKNTVYLQMNSLKPEDTAVYYCNAYQPRYVYWGQGTQVTVSS | high polyreactivity
7 | QVQLVESGGGLVQAGGSLRLSCASSGRTYTLNAMGWYRQAPGKERELVAAIRRGGSTYYADSVKGRFTISRDNAKNTVYLQMNSLKPEDTAVYYCAARGTGYHGYGYWGQGTQVTVSS | high polyreactivity
8 | QVQLVESGGGLVQAGGSLRLSCASSGSIFQYNAMGWYRQAPGKERELVAAINGGGSTYYADSVRGRFTISRDNAKNTVYLQMNSLKPEDTAVYYCAARHGESHYDYWGQGTQVTVSS | low polyreactivity
9 | QVQLVESGGGLVQAGGSLRLSCASSGSIFVTYTMGWYRQAPGKERELVATISGGSSTYADSVKGRFTISRDNAKNTVYLQMNSLKPEDTAVYYCNAVWYFKPPPLYYIPYRQYDYWGQGTQVTVSS | low polyreactivity
10 | QVQLVESGGGLVQAGGSLRLSCASSGSIFYVNTMGWYRQAPGKERELVATISVSGGSTNYADSVKGRFTISRDNAKNTVYFQMNSLKPEDTAVYYCAEAYLRYYDGPYDYWGQGTQVTVSS | low polyreactivity
11 | QVQLVESGGGLVQAGGSLRLSCASSGSIGYYAMGWYRQAPGKERELVAAIDWSGGDTYYADSVKGRFTISRDNAKNTVYLQMNSLKPEDTAVYYCAADAGRYLPDCTYDYWGQGTQVTVSS | low polyreactivity
12 | QVQLVESGGGLVQAGGSLRLSCASSGSILYVYAMGWYRQAPGKERELVAAISTSGVSTYYADSVKGRFTISRDNAKNTVYLQMNSLKPEDTAVYYCAATVSRGFYSWWYDYWGQGTQVTVSS | low polyreactivity
13 | QVQLVESGGGLVQAGGSLRLSCASSGSTFAPNAMGWYSQAPGKEREFVAAITYRGSSTYYADSVKGRFTISRDNAKNTVYLQMNSLKPEDTAVYYCAADYVEYKVRSYDYWGQGTQVTVSS | low polyreactivity
14 | QVQLVESGGGLVQAGGSLRLSCASSGSTFSSYAMGRYRQAPGKERELVAAITRGGSTNYADSVKGRFTISRDNAKNTVYLQMNSLKPEYTAVYYCAADGPIVGTMDYWGQGTQVTVSS | high polyreactivity
15 | QVQLVESGGGLVQAGGSLRLSCASSGSTFTGNAMGWYRQAPGKERELVAAISYRGVSTSYADSVKGRFTISRDNAKNTVYLQMNSLKPEDTAVYYCAKRRSLVRSIPFDSWGQGTQVTVSS | low polyreactivity
16 | QVQLVESGGGLVQAGGSLRLSCASSGSTFWFYAMGWYRQAPGKERELVAAITRSAGSTYYADSVKGRFTISRDNAKNTVYLQMNSLKPEGTAVYYCAAQRESLYGGFDYWGQGTQVTVSS | low polyreactivity
17 | QVQLVESGGGLVQAGGSLRLSCASSGSTFYNNALGWYRQAPGKERELVAAISNVSTYYADSVKGRFTISRDNAKNTVYLQLISLKPEDTAVYYCAARGLLWYYSWRYYFWGQGTQVTVSS | low polyreactivity
18 | QVQLVESGGGLVQAGGSLRLSCASSGSTFYPNAMGWYRQAPGKERELVAAISRSGGSTYYADSVKGRFTISRDNAKNTVYLQMNSLKPEDTGVYYCAADGRSPSRYDYWGQGTQVTVSS | low polyreactivity
19 | QVQLVESGGGLVQAGGSLRLSCASSGSTFYRYAMGWYRQAPGKERELVARINTGGSTSYAYSVKGRFTISRDNAKNTVYLQKNSLKPVDTAVYYCAASSRYAVFGRYYYWGQGTQVTVSS | high polyreactivity
20 | QVQLVESGGGLVQAGGSLRLSCASSGSTFYSYVMGWYRQAPGKERELVAVISNDGSTNYADSVKGRFTISRDNAKNSVYLQMNSLKPEDTAVYYCDALKFVRAYRYYYWGQGTQVTVSS | low polyreactivity
21 | QVQLVESGGGLVQAGGSLRLSCASSGSTFYTNAMGWYRQAPGKERELVAGISSGGSTYYADSVKARFTISRDNAKNTVYLQINSLKPEDTAVYYCAAVERTRYWEFYYWGQGTQVIVSS | high polyreactivity

Row | Sequence | polyreactivity (PSR sort gate)
22 | QVQLVESGGGLVQAGGSLRLSCASYGYTFFNYAKGWYRQAPGKERELVAAITTGGSTYYADSVKGRFTISRDNAKNTVYLQMNSLKPEDTAVYYCPFDYWGQGTQVTVSS | high polyreactivity
23 | QVQLVESGGGLVQAGGSLRLSCATSGFIFSLYAMGWYRQAPGKERELVAAINWNGGRTYYADSVKGRFTISRDNAKNTVYLQMDSLKPEDTAVYYCATRSGSYSYPAVGGWGLGYWGQGTQVTVSS | high polyreactivity
24 | QVQLVESGGGLVQAGGSLRLSCATSGSIFYRYAMGWYRQAPGKEREFVAAIRWRGGSTYYADSVKGRFTISRDNAKNTVYLQMNSLKPEDTAVYYCAAPTVQSYNYWGQGTQVTVSS | high polyreactivity
25 | QVQLVESGGGLVQAGGSLRLSCAVSGRIFRRNVMGWSRPAPGKERALVAGSSYSGDSTYYADSVKGRFTISRDNAKNTVYLQMNSLKPEDTAVYYCAAALAHYRGMYYWGQGTQVTVSS | low polyreactivity
26 | QVQLVESGGGLVQAGGSLRLSCAVSGRIFRRNVMGWYRQAPGKERELVAGSSYSGDSTYYADSVKGRFTISRDNAKNTVYLQMNRLKPEDTAVYYCAAALAHYRGMYYWGQGTQVTVSS | high polyreactivity
27 | QVQLVESGGGLVQAGGSLRLSCCASGFTFIVYSMGWYRQSPGKERELVAAITQSGGSTFYADSVKGRFTISRDNAKNTVYLQMNSLKPEDTAVYYCNAYRKFRYWGQGTQVTVSS | low polyreactivity
28 | QVQLVESGGGLVQAGGSLRLSCCASGRTFLDNALGWYRQAPGKERQLVAAISGGGGTYYADSVKGRFTISRDNAKNTVYLQMNSLKPEDTAVYYCATDRGHKWVFYVTYYRYESWGQGTQVTVSS | low polyreactivity
29 | QVQLVESGGGLVQAGGSLRLSCDASGFIFYSYAMGWYRQAPGKERELVAGITSGGITSYADSVKGRFTISRDNAKNTVYLQMNSLKPEDTAVYYCAKDVRSYRISVYGVGYWGQGTQVTVSS | high polyreactivity
30 | QVQLVESGGGLVQAGGSLRLSCDASGFNFASNDMGWYRPAPGKERELVAAITKGGGRTYYADSVKGRFTISRDNAKNTVYLQMNSLKPEDTAVYYCAARQLIKYDYWGQGTQVTVSS | low polyreactivity
31 | QVQLVESGGGLVQAGGSLRLSCDASGFTFYSYARGWYRQAPGKEREFVASISRSGGSTYYADSVKGRFTISRDNAKYTVYLQMNSLKAEDTEVYYCAARSVRDRDGGDYWGQGTQVTVSS | high polyreactivity
32 | QVQLVESGGGLVQAGGSLRLSCDASGGIFFYNTLRCSRQAPGKERELVAAITTNGDSTYYADSVKGRFTISRDNAKYTVYLQMNSLKPVDTAVYYCATPLELFASFSFSHYVYLFDSWGQGTQVNVSS | low polyreactivity
33 | QVQLVESGGGLVQAGGSLRLSCDASGIIFKKYAMGWNRQAPGKERELVAVITRGGSTNYADSVKGRFTISRDNAKNTVYLQMNSLKPEDTAVYYCNADSGSYHGWYGGDYGGQGTQVTVSS | low polyreactivity
34 | QVQLVESGGGLVQAGGSLRLSCDASGIILNINAMGWYRQAPGKERELVAAITSDGSTNYADSVKGRFTISRDNAKNTVYLQMNSLKPEDTAVYYCAVDLPWGTGVSQYPESDYWGQGTQVTVSS | low polyreactivity
35 | QVQLVESGGGLVQAGGSLRLSCDASGITFASYAMGWYRQAPGKERELVAAISWGGSRTYYADSVKGRFTISRDNAKNTVYFQMNSLKPVDTAVYYCNAHTRYGPDYSYYYWGQGTQVTVSS | high polyreactivity
36 | QVQLVESGGGLVQAGGSLRLSCDASGITFIRNGMGWYRQAPGKERELVAAISDTGARTYYADSVKGRFTISRDNAKNTVYLQMNSLKPEDTAVYYCAAEVRTRYLYSFRWDDYWGQGTQVTVSS | low polyreactivity
37 | QVQLVESGGGLVQAGGSLRLSCDASGITFQYYAMGWYRQAPGKERELVAAINWRGGTTYYADSVKGRITISRDNAKNTVYLQMNSLIPEDNEVYYCAADYYYQAGFYYWGQGTQVTVSS | low polyreactivity
38 | QVQLVESGGGLVQAGGSLRLSCDASGITQTVYAMGWYRQSPGKERELVAGIDWVGDTYADSVKGRFTISRDNAKNTVYLQMNSLKPEDTAVYYCAADNYSQGVPYDYWGQGSQVTVSS | low polyreactivity
39 | QVQLVESGGGLVQAGGSLRLSCDASGLIFITYAMRWYRQAPGKERELVATITLRGGSTYYADSVKGRFTISRDNAKNTVYLQMNSLKPEDTAVYYCAAEVGYWGRSRGYPSDDYDYCGQGTQVTVSS | low polyreactivity
40 | QVQLVESGGGLVQAGGSLRLSCDASGLTFPYYTMGWYRQAPGKERELVADINGSGGSTYYADSVKGRFTISLDNAKNTFYLQMNSLKPEDTEVYYCAAGSWQVAISYDYWGQGTQVTVSS | low polyreactivity
41 | QVQLVESGGGLVQAGGSLRLSCDASGNILPSNAMGWYRQAPGKERELVAAITWSVGRTYYADSVKGRFTISRDNAKNTVYLQMNSLKPEDTAVYYCNAQDTPYEGRYDESEYDYWGQGTQVTVSS | low polyreactivity
